Reference: the supplement of paper PMC9732359
± gives the uncertainty stated by the source.

Test: protein stability index of a GFP-peptide fusion (yeast GPS) (PSI 1-4); higher = more stable; sorted into four equal gates, so the index is relative within each strain
How it was run: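 Mid-log yeast cultures in leucine-free medium, carrying a pooled plasmid library, were sorted into four equal gates by their GFP/Cherry fluorescence ratio. Each plasmid expressed Cherry along with GFP fused upstream of a tiled 17-residue yeast protein peptide. Plasmids recovered from each gate were PCR-amplified and Illumina-sequenced, with reads assigned to strains by barcodes. The protein stability index was obtained by summing each gate's read frequency weighted by its gate number.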

Sequence: GIIITDQSNVQYYLSVL [BRR2]
- protein stability index (doa10∆): 3.32 ± 0.2
- protein stability index (pdr5∆): 3.44 ± 0.19
- protein stability index (san1∆): 3.07 ± 0.11
- protein stability index (ubr1∆): 3.01 ± 0.13

Sequence: DDDTFSDREMAALIASK [RPN2]
- protein stability index (doa10∆): 1.6 ± 0.079
- protein stability index (pdr5∆): 1.55 ± 0.056
- protein stability index (san1∆): 1.32 ± 0.12
- protein stability index (ubr1∆): 1.79 ± 0.063

Sequence: GKVRLWKATYSNEFKCM [YGL100W/SEH1]
- protein stability index (doa10∆): 2 ± 0.041
- protein stability index (pdr5∆): 1.84 ± 0.053
- protein stability index (san1∆): 1.78 ± 0.048
- protein stability index (ubr1∆): 2.22 ± 0.03

Sequence: AAQTLLQMDYKDDMKVD [PRE9]
- protein stability index (doa10∆): 3.3 ± 0.1
- protein stability index (pdr5∆): 3.3 ± 0.068
- protein stability index (san1∆): 3.25 ± 0.063
- protein stability index (ubr1∆): 3.26 ± 0.084

Sequence: TNPKLKSEFDDLSLNIH [YMR129W/POM152]
- protein stability index (doa10∆): 2.96 ± 0.071
- protein stability index (pdr5∆): 3.14 ± 0.056
- protein stability index (san1∆): 3.02 ± 0.038
- protein stability index (ubr1∆): 3.17 ± 0.05

Sequence: TIANSIILHFANFGEIL [YMR153W/NUP53]
- protein stability index (doa10∆): 2.15 ± 0.055
- protein stability index (pdr5∆): 2.38 ± 0.054
- protein stability index (san1∆): 2.23 ± 0.062
- protein stability index (ubr1∆): 2.27 ± 0.062

Sequence: KAEMPPEHLRKIINTHS [PRP8]
- protein stability index (doa10∆): 1.94 ± 0.089
- protein stability index (pdr5∆): 1.74 ± 0.058
- protein stability index (san1∆): 1.82 ± 0.12
- protein stability index (ubr1∆): 1.89 ± 0.061

Sequence: PFKFGKTSEKSENHTES [YOR098C/NUP1]
- protein stability index (doa10∆): 2.94 ± 0.16
- protein stability index (pdr5∆): 3.05 ± 0.14
- protein stability index (san1∆): 3.1 ± 0.15
- protein stability index (ubr1∆): 2.92 ± 0.17

Sequence: ESKLIPQENDLESKMSE [SMC3]
- protein stability index (doa10∆): 2.81 ± 0.065
- protein stability index (pdr5∆): 3.05 ± 0.065
- protein stability index (san1∆): 3.15 ± 0.059
- protein stability index (ubr1∆): 3.01 ± 0.054

Sequence: NASKVISTPIINAVLVN [RPO31]
- protein stability index (doa10∆): 1.63 ± 0.11
- protein stability index (pdr5∆): 2.19 ± 0.14
- protein stability index (san1∆): 1.74 ± 0.2

Sequence: KVTSTLLEQDTSTEKLY [PRE9]
- protein stability index (doa10∆): 2.7 ± 0.056
- protein stability index (pdr5∆): 3 ± 0.066
- protein stability index (san1∆): 2.65 ± 0.063
- protein stability index (ubr1∆): 2.63 ± 0.08

Sequence: TAVKQGVTSLGIKATNG [PRE8]
- protein stability index (doa10∆): 2.41 ± 0.065
- protein stability index (pdr5∆): 2.06 ± 0.055
- protein stability index (san1∆): 1.87 ± 0.072
- protein stability index (ubr1∆): 1.71 ± 0.083

Sequence: HMSTYLKIYKVGDIVDI [RPL21B]
- protein stability index (doa10∆): 1.69 ± 0.036
- protein stability index (pdr5∆): 1.64 ± 0.037
- protein stability index (san1∆): 1.95 ± 0.052
- protein stability index (ubr1∆): 1.95 ± 0.036

Sequence: FEGTDDNEEASVKLDLQ [BRN1]
- protein stability index (doa10∆): 3.2 ± 0.17
- protein stability index (pdr5∆): 3.65 ± 0.11
- protein stability index (san1∆): 3.49 ± 0.096
- protein stability index (ubr1∆): 3.35 ± 0.098

Sequence: RFVLSDDYSNLKREERQ [SMC3]
- protein stability index (doa10∆): 2.27 ± 0.085
- protein stability index (pdr5∆): 2.65 ± 0.081
- protein stability index (san1∆): 2.43 ± 0.093
- protein stability index (ubr1∆): 2.7 ± 0.059

Sequence: ISLEALNFYITNVPKAK [SIR3]
- protein stability index (doa10∆): 2.67 ± 0.065
- protein stability index (pdr5∆): 2.82 ± 0.063
- protein stability index (san1∆): 2.62 ± 0.053
- protein stability index (ubr1∆): 2.87 ± 0.035

Sequence: RFAFSVIWELDDSANIV [DIS3]
- protein stability index (doa10∆): 2.63 ± 0.06
- protein stability index (pdr5∆): 2.49 ± 0.067
- protein stability index (san1∆): 3.01 ± 0.063
- protein stability index (ubr1∆): 2.62 ± 0.047

Sequence: EEATTEEAGEEEAKEEV [RPS0A]
- protein stability index (doa10∆): 2.69 ± 0.11
- protein stability index (pdr5∆): 2.78 ± 0.17

Sequence: IMNMIENVEKKEAALKT [SMC2]
- protein stability index (doa10∆): 1.76 ± 0.082
- protein stability index (pdr5∆): 1.83 ± 0.079
- protein stability index (san1∆): 1.67 ± 0.092
- protein stability index (ubr1∆): 1.69 ± 0.05

Sequence: MSIDEEDKDSESFSEVC [YCG1]
- protein stability index (doa10∆): 2.71 ± 0.15
- protein stability index (pdr5∆): 2.34 ± 0.09
- protein stability index (san1∆): 2.48 ± 0.15
- protein stability index (ubr1∆): 2.43 ± 0.067

Sequence: KVLLPSINISCVQLIKC [SWI1]
- protein stability index (doa10∆): 1.27 ± 0.064
- protein stability index (pdr5∆): 1.47 ± 0.051
- protein stability index (san1∆): 1.17 ± 0.18
- protein stability index (ubr1∆): 1.49 ± 0.051

Sequence: SPELKAELRPLQFKSIR [RPS7A]
- protein stability index (doa10∆): 2.91 ± 0.11
- protein stability index (pdr5∆): 3.54 ± 0.11
- protein stability index (san1∆): 2.61 ± 0.14
- protein stability index (ubr1∆): 3.07 ± 0.12

Sequence: IAASYHYPEIEDLVDRI [RPP0]
- protein stability index (pdr5∆): 1.89 ± 0.16

Sequence: RVEKIPEIPLVVSTDLE [RPL4A]
- protein stability index (pdr5∆): 2.93 ± 0.3
- protein stability index (ubr1∆): 2.77 ± 0.22

Sequence: QGDEALSVDDIRGAVGN [RTT102]
- protein stability index (doa10∆): 3.35 ± 0.096
- protein stability index (pdr5∆): 3.49 ± 0.12
- protein stability index (san1∆): 3.24 ± 0.059
- protein stability index (ubr1∆): 3.41 ± 0.085

Sequence: GAVSLNPSITRLEEESS [RRP4]
- protein stability index (doa10∆): 3 ± 0.2
- protein stability index (pdr5∆): 3.03 ± 0.14
- protein stability index (san1∆): 3.07 ± 0.1
- protein stability index (ubr1∆): 2.35 ± 0.08

Sequence: MIFETIVDGKLKTEKIF [FAS1]
- protein stability index (doa10∆): 1.8 ± 0.07
- protein stability index (pdr5∆): 2.21 ± 0.12
- protein stability index (san1∆): 1.89 ± 0.1
- protein stability index (ubr1∆): 2.17 ± 0.08

Sequence: GFDIQKSCEPVSISTSV [SIR4]
- protein stability index (doa10∆): 1.36 ± 0.091
- protein stability index (pdr5∆): 1.73 ± 0.13
- protein stability index (san1∆): 1.51 ± 0.27
- protein stability index (ubr1∆): 1.56 ± 0.07

Sequence: AIVVGWRAIIKAIFPNT [FAS1]
- protein stability index (doa10∆): 2.44 ± 0.1
- protein stability index (pdr5∆): 2.71 ± 0.14
- protein stability index (san1∆): 2.41 ± 0.086
- protein stability index (ubr1∆): 2.33 ± 0.15

Sequence: KSKLDQDSTSENVKIIN [RPN2]
- protein stability index (doa10∆): 3.39 ± 0.07
- protein stability index (pdr5∆): 3.3 ± 0.065
- protein stability index (san1∆): 2.97 ± 0.074
- protein stability index (ubr1∆): 3.18 ± 0.08

Sequence: EKLLRHVDSLIEDFVDG [SRB7]
- protein stability index (doa10∆): 3.2 ± 0.08
- protein stability index (pdr5∆): 3.2 ± 0.083
- protein stability index (san1∆): 3.22 ± 0.061
- protein stability index (ubr1∆): 3.24 ± 0.057

Sequence: FLLLAVNKYGLRADKLY [ISW2]
- protein stability index (doa10∆): 3.05 ± 0.078
- protein stability index (pdr5∆): 2.5 ± 0.075
- protein stability index (san1∆): 2.62 ± 0.055
- protein stability index (ubr1∆): 2.93 ± 0.059

Sequence: IHKIQNDNNLKKLESQE [RPN5]
- protein stability index (doa10∆): 3.08 ± 0.2
- protein stability index (pdr5∆): 3 ± 0.17
- protein stability index (san1∆): 2.85 ± 0.11

Sequence: DVKVIMATNKIETLDPA [RPT2]
- protein stability index (doa10∆): 3.17 ± 0.091
- protein stability index (pdr5∆): 2.96 ± 0.093
- protein stability index (san1∆): 2.92 ± 0.07
- protein stability index (ubr1∆): 2.9 ± 0.068

Sequence: SNEEKEKIKMKLKQGQK [GAL11]
- protein stability index (doa10∆): 2.96 ± 0.25
- protein stability index (pdr5∆): 3.37 ± 0.12
- protein stability index (san1∆): 3.04 ± 0.07

Sequence: YLMTYPQQPMVKTKTIE [RET1]
- protein stability index (doa10∆): 1.81 ± 0.099
- protein stability index (pdr5∆): 1.69 ± 0.15
- protein stability index (san1∆): 1.61 ± 0.24
- protein stability index (ubr1∆): 1.08 ± 0.065

Sequence: ETYGSMEMSEKIQFILE [RPN5]
- protein stability index (doa10∆): 2.41 ± 0.12
- protein stability index (pdr5∆): 2.94 ± 0.082
- protein stability index (san1∆): 2.53 ± 0.079
- protein stability index (ubr1∆): 2.77 ± 0.079

Sequence: SSFVRQELAKSIRSRRP [PRE1]
- protein stability index (doa10∆): 2.08 ± 0.12
- protein stability index (pdr5∆): 2.21 ± 0.074
- protein stability index (san1∆): 1.78 ± 0.23
- protein stability index (ubr1∆): 2.12 ± 0.065

Sequence: EIARQMRDKSFGRTLAS [RPL12A]
- protein stability index (doa10∆): 3.25 ± 0.1
- protein stability index (pdr5∆): 3.07 ± 0.12
- protein stability index (san1∆): 2.88 ± 0.13
- protein stability index (ubr1∆): 2.72 ± 0.18

Sequence: PAFTFGAQKDNEKKTEE [YJL041W/NSP1]
- protein stability index (doa10∆): 3.35 ± 0.2
- protein stability index (pdr5∆): 2.64 ± 0.28
- protein stability index (san1∆): 3.11 ± 0.26
- protein stability index (ubr1∆): 3.46 ± 0.2

Sequence: NMNLNPQMFLNQQAQAR [GAL11]
- protein stability index (doa10∆): 1.92 ± 0.035
- protein stability index (pdr5∆): 2.42 ± 0.035
- protein stability index (san1∆): 2.37 ± 0.056
- protein stability index (ubr1∆): 2.04 ± 0.03

Sequence: IVSEDHIILDTISECNL [MED1]
- protein stability index (doa10∆): 2.87 ± 0.093
- protein stability index (pdr5∆): 3.19 ± 0.081
- protein stability index (san1∆): 3.2 ± 0.077
- protein stability index (ubr1∆): 2.83 ± 0.12

Sequence: MHRKSLRRASATVPSAP [YAR002W/NUP60]
- protein stability index (doa10∆): 2.64 ± 0.071
- protein stability index (pdr5∆): 2.82 ± 0.092
- protein stability index (san1∆): 2.39 ± 0.064
- protein stability index (ubr1∆): 2.74 ± 0.063

Sequence: DEIYIPINGNEAESQWY [CSI1]
- protein stability index (doa10∆): 2.63 ± 0.065
- protein stability index (pdr5∆): 3.13 ± 0.06
- protein stability index (san1∆): 3.11 ± 0.07
- protein stability index (ubr1∆): 3.31 ± 0.064

Sequence: VDVAKDINVKDLKASQR [RPT6]
- protein stability index (doa10∆): 3.35 ± 0.14
- protein stability index (pdr5∆): 3.13 ± 0.11
- protein stability index (san1∆): 2.63 ± 0.18
- protein stability index (ubr1∆): 3.22 ± 0.098

Sequence: KYKPTPLYVMDEIDAAL [SMC4]
- protein stability index (doa10∆): 2.45 ± 0.085
- protein stability index (pdr5∆): 3.06 ± 0.11
- protein stability index (san1∆): 3 ± 0.07
- protein stability index (ubr1∆): 2.81 ± 0.057

Sequence: ELSDKEIYTVEDRPPEY [ISW2]
- protein stability index (doa10∆): 3.34 ± 0.13
- protein stability index (pdr5∆): 3.45 ± 0.15
- protein stability index (san1∆): 3.33 ± 0.17
- protein stability index (ubr1∆): 3.42 ± 0.12

Sequence: SKNSKLSIICVGGHNVT [SIR3]
- protein stability index (doa10∆): 1.71 ± 0.069
- protein stability index (pdr5∆): 1.57 ± 0.039
- protein stability index (san1∆): 1.39 ± 0.081
- protein stability index (ubr1∆): 1.52 ± 0.041

Sequence: NWRGREHWKVRNFKKAN [BRN1]
- protein stability index (doa10∆): 3.43 ± 0.12
- protein stability index (pdr5∆): 3.36 ± 0.12
- protein stability index (san1∆): 3.52 ± 0.075
- protein stability index (ubr1∆): 3.49 ± 0.1

Sequence: DIIMNPHGFPSRMTVGK [RET1]
- protein stability index (doa10∆): 2.67 ± 0.056
- protein stability index (pdr5∆): 2.83 ± 0.076
- protein stability index (san1∆): 2.79 ± 0.049
- protein stability index (ubr1∆): 2.71 ± 0.065

Sequence: QILTVDPKTSLRIVKPT [RPC82]
- protein stability index (doa10∆): 3.07 ± 0.21
- protein stability index (pdr5∆): 2.99 ± 0.19
- protein stability index (san1∆): 3.09 ± 0.12

Sequence: TPLQSQLNLNNLTPANI [PGD1]
- protein stability index (doa10∆): 2.98 ± 0.064
- protein stability index (pdr5∆): 3.11 ± 0.053
- protein stability index (san1∆): 2.99 ± 0.039
- protein stability index (ubr1∆): 3.01 ± 0.04
